Experimental data taken from patent publication WO2024019110A1 (dated 2024).

Biological target: Wuhan strain RBD (Ancestral), biotinylated (SARS-CoV-2 (Wuhan strain), UniProt P0DTC2 331-529)
Assay: BLI (Octet), biotinylated RBD on streptavidin biosensor, Fab in solution

Binder	Kd [nM]
recombinant Fab protein of antibody No. 2 (Fab, V domains shown) VH: EVQLVESGGGVVQPGRSLRLSCAASGFKFSKFAMHWVRQAPGKGPEWVAVISYDGNQYHSADSVKGRFTISRDNSFNTLYLQMNSLGPEDTAVYYCARDGPDTSGYYANIYFDFWGQGTLVTVSS VL: QSVLTQPPSVSGAPGQRVTISCTGSSSNIGAGYDVHWYQQLPGRAPKLLIFDNNNRPSGVPDRFSGSKSGTSASLAITGLQTEDEAYYYCQSYDNSLILAVFGGGTKVTVL	≤ 100
recombinant Fab protein of antibody No. 5 (Fab, V domains shown) VH: EVQLVESGGGLVQPGGSLRLSCAASGFTFYSYWMTWVRQAPGKGLEWVANIKHDESESHYVDSVRGRFTISRDNAKNSVYLQMKGLRAEDTAVYYCARDGGYNILTAYYHAPSYWGQGTLVTVSS VL: QSALTQPASVSGSPGQSITISCTGTSSDVGGYNFVSWYRQYPGKAPQLMIYDVSRRPSGDSDRFSGSKSGNTASLTISGLQAEDEAEYHCSSYTGRSPYVVFGGGTKVTVL	≤ 100
recombinant Fab protein of antibody No. 6 (Fab, V domains shown) VH: QVQLVQSGPEVKKPGTSVKVSCKASGFTFYYSAVQWVRQARGQRLEWLGWMAVGSGKANYAQKFQERLTLTRDMSTSTAYMELSSLRSEDTAVYYCAAPNCTGGSCYDGFNLWGQGTVVTVSS VL: EIVLTQSPGTLSLSPGDRAILSCRASQTVNSNYLAWYQQKPGQAPRLLIYGTSSRATGIPDRFSGSGSGTDFTLTISRLEPEDFAVYYCQQYGSSPWLFGQGTKVEIK	≤ 100
recombinant Fab protein of antibody No. 7 (Fab, V domains shown) VH: EVQLLESGGGLVQPGGSLRLSCAASGFTFSRYALSWVRQAPGKGLEWVSAISGAAITTYYADSVKGRFTISRDDSRNTLFMQMDSLRAEDTAVYYCAKGDYYDSSGYLAEYFPHWGQGTLVTVSS VL: SYELTQPPSVSVSPGQTARITCFADALPKQHAYWYQQKAGQAPVLVIFKDTERPSGIPKRFSGSRSGATVTLTISGVQAEDEADYYCQSTDISGVLFGGGTKLTVL	≤ 100
